Assay results as given in publication PMC4552014, “High Affinity Binders to EphA2 Isolated from Abdurin Scaffold Libraries; Characterization, Binding and Tumor Targeting” (PLoS ONE, 2015).
Changes are numbered by the printed parent chain.

B1: Abdurin B11, affinity matured EphA2 binder (designed binder)
chain: GPSVFLFPPKPKDTLMISRTPEVTCVVVDYRADYLEVKFNWYVDGVEVHNAKTKPRQYDPLYGYRVVSVLTVLHQDWLNGKEYKCKVSNKALPAPIEKTISKAK
notes: Abdurin scaffold (human IgG1 CH2 domain), stretch before loop BC; loop BC of matured clone B11, in place of Val266-Pro271 (VSHEDP) of the scaffold; Abdurin scaffold (human IgG1 CH2 domain), stretch between loops BC and DE; loop DE from the parental clone E10, in place of Glu293-Thr299 (EEQYNST); Abdurin scaffold (human IgG1 CH2 domain), stretch after loop DE; Not the phage loop DE clone of the …
B2: Abdurin H6, purified loop DE binder (designed binder)
chain: B1 chain with Y30V, R31S, A32H, D33E, Y34D, L35P, Q57R, Y58V, Y62G
notes: Abdurin scaffold (human IgG1 CH2 domain), stretch before loop DE; loop DE of clone H6, in place of Glu293-Thr299 (EEQYNST) of the scaffold; Abdurin scaffold (human IgG1 CH2 domain), stretch after loop DE
B3: Abdurin G7, affinity matured EphA2 binder (designed binder)
chain: B1 chain with Y30P, R31H, A32L, D33G, Y34V, L35D
notes: Abdurin scaffold (human IgG1 CH2 domain), stretch before loop BC; loop BC of matured clone G7, in place of Val266-Pro271 (VSHEDP) of the scaffold; Abdurin scaffold (human IgG1 CH2 domain), stretch between loops BC and DE; loop DE from the parental clone E10, in place of Glu293-Thr299 (EEQYNST); Abdurin scaffold (human IgG1 CH2 domain), stretch after loop DE; source: E. coli Shuffle cells, …
B4: Abdurin D2, affinity matured EphA2 binder (designed binder)
chain: B1 chain with R31E, D33A, Y34A
notes: Abdurin scaffold (human IgG1 CH2 domain), stretch before loop BC; loop BC of matured clone D2, in place of Val266-Pro271 (VSHEDP) of the scaffold; Abdurin scaffold (human IgG1 CH2 domain), stretch between loops BC and DE; loop DE from the parental clone E10, in place of Glu293-Thr299 (EEQYNST); Abdurin scaffold (human IgG1 CH2 domain), stretch after loop DE; Not the phage loop DE clone of the …
B5: Abdurin B6, affinity matured EphA2 binder (designed binder)
chain: B1 chain with Y30P, R31Y, A32L, D33H, Y34D, L35D
notes: Abdurin scaffold (human IgG1 CH2 domain), stretch before loop BC; loop BC of matured clone B6, in place of Val266-Pro271 (VSHEDP) of the scaffold; Abdurin scaffold (human IgG1 CH2 domain), stretch between loops BC and DE; loop DE from the parental clone E10, in place of Glu293-Thr299 (EEQYNST); Abdurin scaffold (human IgG1 CH2 domain), stretch after loop DE; source: E. coli Shuffle cells, …

How the values were obtained:
human FcRn (human) = human FcRn (human) (UniProt P55899); assay: SPR; Biacore 3000, on hFcRn; who was immobilised and the conditions not given
hEphA2-Fc = target: T1, hEphA2-Fc (human, UniProt P29317 24-537); assay: ELISA; end-point titration ELISA in 96-well plates coated with hEphA2-Fc or mEphA2-Fc; purified Abdurins titrated; detected by anti-FLAG M2-HRP; the constant is printed as 'Affinity (M)'; conditions: both partners purified
T1 construct: EphA2, human, as Fc fusion coated on 96-well plates; Probably the extracellular domain; also called huEphA2

[1] = target: T2, murine EphA2-Fc fusion protein (mouse, UniProt Q03145 26-538); assay: as above; conditions: both partners purified
T2 construct: ephrin receptor tyrosine kinase class A2 (EphA2), mouse, extracellular domain as Fc chimera; Biotinylated in-house (EZ-Link Sulfo-NHS-LC-Biotin) for the CIS display selections and the screening ELISA; also called mEphA2-Fc; mEphA2; source: bought: R&D Systems

[2] = target: human EphA2 recombinant protein (human, UniProt P29317 24-976, Construct limits are not given; the soluble recombinant receptor is taken as the mature extracellular domain from the UniProt features. The Fig 3 legend names an Fc fusion (hEphA2-Fc), and the Fc is); assay: SPR; Biacore 3000; hEphA2 immobilised on CM5 chip by amine coupling (500 RU); Abdurins as analyte, multi-cycle kinetics in HBS-P (50 mM Hepes pH 7.4, 150 mM NaCl, 0.005% P-20), 40 μl/minute; 1:1 binding model; repeated three times; conditions: both partners purified
[3] = target: T3, hEphA2 on CHOK1-EphA2 cells (human, UniProt P29317 24-976); assay: flow cytometry on cells; Abdurins at 1nM to 7μM incubated with CHOK1-EphA2 cells; detected with mouse anti-HisTag-FITC; the constant is printed as 'Affinity (M)'; conditions: one partner purified
T3 construct: EphA2, human, transfection-ready hEphA2 cDNA (OriGene Technologies); also called cell-surface expressed hEphA2; source: CHOK1 cells transfected with hEphA2 cDNA (OriGene Technologies), single cell clone, on cells

[4] = target: T2, murine EphA2-Fc fusion protein; assay: SPR; Biacore 3000, on mEphA2; purified Abdurins from E. coli; immobilisation for mEphA2 not described; conditions: both partners purified

T1 sequence (P29317 24-537): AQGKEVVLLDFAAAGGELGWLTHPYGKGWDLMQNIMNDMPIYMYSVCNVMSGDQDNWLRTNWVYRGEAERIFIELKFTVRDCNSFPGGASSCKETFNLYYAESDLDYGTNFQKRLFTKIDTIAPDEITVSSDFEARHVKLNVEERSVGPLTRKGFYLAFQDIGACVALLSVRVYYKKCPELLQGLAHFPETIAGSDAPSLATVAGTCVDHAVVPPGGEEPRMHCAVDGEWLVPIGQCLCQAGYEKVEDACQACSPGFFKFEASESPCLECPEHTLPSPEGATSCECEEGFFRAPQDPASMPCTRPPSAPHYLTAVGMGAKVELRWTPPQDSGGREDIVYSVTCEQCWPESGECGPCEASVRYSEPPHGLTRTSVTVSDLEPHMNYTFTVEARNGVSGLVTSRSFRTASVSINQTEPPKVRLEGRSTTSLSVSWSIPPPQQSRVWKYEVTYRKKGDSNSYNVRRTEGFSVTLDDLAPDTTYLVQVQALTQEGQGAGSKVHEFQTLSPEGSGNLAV
T2 sequence (Q03145 26-538): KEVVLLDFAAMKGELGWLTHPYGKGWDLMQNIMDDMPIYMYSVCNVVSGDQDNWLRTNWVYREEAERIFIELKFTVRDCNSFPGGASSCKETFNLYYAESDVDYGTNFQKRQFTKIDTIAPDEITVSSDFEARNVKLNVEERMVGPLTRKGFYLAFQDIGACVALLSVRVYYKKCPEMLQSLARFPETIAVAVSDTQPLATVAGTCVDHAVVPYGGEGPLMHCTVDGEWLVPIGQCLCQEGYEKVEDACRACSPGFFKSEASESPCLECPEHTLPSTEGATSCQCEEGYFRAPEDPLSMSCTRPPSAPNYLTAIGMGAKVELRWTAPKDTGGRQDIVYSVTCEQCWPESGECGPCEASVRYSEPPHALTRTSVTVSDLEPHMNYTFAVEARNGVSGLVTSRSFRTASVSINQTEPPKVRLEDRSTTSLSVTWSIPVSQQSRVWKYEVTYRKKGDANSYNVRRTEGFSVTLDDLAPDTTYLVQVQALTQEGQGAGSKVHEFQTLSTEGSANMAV
T3 sequence (P29317 24-976): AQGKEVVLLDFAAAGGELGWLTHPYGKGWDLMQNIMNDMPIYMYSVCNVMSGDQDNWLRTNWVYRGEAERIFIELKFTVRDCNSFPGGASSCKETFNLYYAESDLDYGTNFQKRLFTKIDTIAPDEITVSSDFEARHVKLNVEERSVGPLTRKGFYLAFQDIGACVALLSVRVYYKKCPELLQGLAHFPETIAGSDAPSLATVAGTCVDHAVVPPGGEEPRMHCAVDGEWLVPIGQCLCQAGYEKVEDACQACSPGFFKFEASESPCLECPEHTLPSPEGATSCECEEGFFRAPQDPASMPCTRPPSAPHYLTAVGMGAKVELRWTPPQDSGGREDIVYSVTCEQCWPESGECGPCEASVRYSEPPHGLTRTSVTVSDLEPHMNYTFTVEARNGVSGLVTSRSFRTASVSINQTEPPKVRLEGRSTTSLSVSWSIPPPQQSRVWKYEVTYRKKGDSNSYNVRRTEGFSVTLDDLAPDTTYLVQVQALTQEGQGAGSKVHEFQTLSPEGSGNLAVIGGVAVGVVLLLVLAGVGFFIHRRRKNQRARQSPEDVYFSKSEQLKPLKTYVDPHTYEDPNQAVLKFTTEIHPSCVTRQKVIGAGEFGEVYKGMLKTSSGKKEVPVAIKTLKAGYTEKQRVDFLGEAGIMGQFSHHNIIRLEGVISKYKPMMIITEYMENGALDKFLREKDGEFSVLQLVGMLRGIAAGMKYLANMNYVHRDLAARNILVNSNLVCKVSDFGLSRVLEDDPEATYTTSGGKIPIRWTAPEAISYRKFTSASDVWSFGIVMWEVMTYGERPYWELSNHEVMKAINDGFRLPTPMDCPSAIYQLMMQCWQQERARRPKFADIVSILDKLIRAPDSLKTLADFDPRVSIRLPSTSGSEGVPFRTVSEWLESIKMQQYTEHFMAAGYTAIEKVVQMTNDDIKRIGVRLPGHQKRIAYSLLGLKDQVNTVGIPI
Sequence of human EphA2 recombinant protein (P29317 24-976): as above

Molecule	Kd (human FcRn (human)) [nM]	koff (human FcRn (human)) [s⁻¹]	kon (human FcRn (human)) [M⁻¹ s⁻¹]	Kd (hEphA2-Fc) [nM]	Kd [1] [nM]	koff [2] [s⁻¹]	kon [2] [M⁻¹ s⁻¹]	Kd [3] [nM]	Kd [4] [nM]	koff [4] [s⁻¹]	kon [4] [M⁻¹ s⁻¹]
shWTCH2 (version of the wild-type CH2 domain that has the N-terminal seven amino acids truncated) (domain or fragment)	25	0.017	1.5e+06	–	–	–	–	–	–	–	–
B1	26	0.013	1.1e+06	4.43	9.89	0.0158	1.21e+06	403	–	–	–
B2	–	–	–	–	–	–	–	–	873	0.008	9610
B3	–	–	–	8.06	3.18	0.0375	1.8e+06	333	–	–	–
B4	–	–	–	2.55	1.97	–	–	1310	–	–	–
B5	38	0.011	1.1e+06	6.54	3.5	0.0496	716000	151	–	–	–
